Test results from PMC6126627.

Tests used:
Assay in all cases: ELISA
[1] = target: human plasma fibronectin (human)
[2] = target: human plasma vitronectin (human)
[3] = target: murine sarcoma laminin (mouse) (UniProt P19137)

Substance: full-length recombinant P4 (rP4^G22-K274), Haemophilus lipoprotein e (from UniProt P26093 22-274) (natural protein)
- Kd [1]: 10.2 nM
- Kd [2]: 16.5 nM
- Kd [3]: 9.26 nM
